This note sets out measurements from US20090305241, “DNA demethylases and uses thereof” (REGENTS OF THE UNIVERSITY OF CALIFORNIA, published 2009).

Series [1] concerns the target T1, DME (MBP-Δ537DME, wild-type glycosylase domain) (UniProt Q8LK56).
T1 sequence: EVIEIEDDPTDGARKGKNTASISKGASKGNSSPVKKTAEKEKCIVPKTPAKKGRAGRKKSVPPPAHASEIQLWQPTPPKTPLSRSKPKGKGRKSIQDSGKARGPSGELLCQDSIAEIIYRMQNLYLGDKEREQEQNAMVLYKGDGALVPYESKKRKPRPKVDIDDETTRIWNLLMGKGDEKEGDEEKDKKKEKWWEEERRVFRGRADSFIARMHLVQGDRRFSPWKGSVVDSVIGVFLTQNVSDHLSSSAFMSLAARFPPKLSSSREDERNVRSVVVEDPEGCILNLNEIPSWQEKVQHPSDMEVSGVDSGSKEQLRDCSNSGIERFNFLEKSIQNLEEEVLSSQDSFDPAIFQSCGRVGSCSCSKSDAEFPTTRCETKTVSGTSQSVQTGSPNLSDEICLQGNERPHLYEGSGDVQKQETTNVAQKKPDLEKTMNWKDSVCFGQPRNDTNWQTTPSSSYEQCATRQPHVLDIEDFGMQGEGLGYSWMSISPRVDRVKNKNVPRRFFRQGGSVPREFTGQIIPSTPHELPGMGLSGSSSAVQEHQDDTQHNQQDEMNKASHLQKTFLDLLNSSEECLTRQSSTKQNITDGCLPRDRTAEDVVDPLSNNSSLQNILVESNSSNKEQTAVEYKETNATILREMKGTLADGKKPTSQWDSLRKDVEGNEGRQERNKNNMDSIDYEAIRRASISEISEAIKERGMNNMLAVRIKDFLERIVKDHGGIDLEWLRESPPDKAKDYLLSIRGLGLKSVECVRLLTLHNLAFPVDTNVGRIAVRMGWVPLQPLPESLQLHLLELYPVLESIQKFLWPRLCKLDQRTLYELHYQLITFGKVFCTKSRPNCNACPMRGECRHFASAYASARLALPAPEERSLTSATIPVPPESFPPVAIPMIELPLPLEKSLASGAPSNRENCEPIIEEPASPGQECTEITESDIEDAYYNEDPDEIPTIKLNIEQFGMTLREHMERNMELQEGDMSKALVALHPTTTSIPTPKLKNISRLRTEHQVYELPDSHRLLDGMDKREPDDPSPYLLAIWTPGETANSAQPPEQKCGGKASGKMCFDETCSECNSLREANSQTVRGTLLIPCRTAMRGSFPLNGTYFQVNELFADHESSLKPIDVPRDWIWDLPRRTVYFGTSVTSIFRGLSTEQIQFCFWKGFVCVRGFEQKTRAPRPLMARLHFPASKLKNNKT
In words: cleavage_in_vitro. The following applies: abasic at top position 18; 5mC at bottom position 19; rate reduced approximately 10-fold.

For a further series, the target named is T2, DME D1304N (MBP-Δ537DME) (UniProt Q8LK56 SEQ:538-1729, D1304N).
T2 sequence: T1 sequence with D767N
In words: no trapping or lyase activity detected (catalytic mutant). The following applies: tags: N-terminal MBP (pMAL-c2x); label: 5'-32P top strand. Here is the method: (§1) 5′-labeled oligonucleotide substrates (13.3 nM) were incubated with DME protein (250 nM) in a 15 μl reaction with 40 mM HEPES-KOH (pH 8.0), 0.1 M KCl, 0.1 mM EDTA, 0.5 mM dithiothreitol, and 200 μg/mL BSA at 37° for 1 hr. The reaction was terminated with 15 μl of 95% formamide, 20 mM EDTA, 0.05% bromophenol blue, 0.05% xylene cyanol FF and boiled for 5 min. To induce […], NaOH was added at a final concentration of 0.1 M and the reaction was boiled for 7 min. Products were fractionated on a 15% polyacrylamide gel containing 7.5 M urea and 1×TBE. Electrophoresis was done at 1000V for 4 hrs with a Hoefer SQ3 gel apparatus. The gel was exposed to Kodak BioMax MR film at −80°. Methods for purification of recombinant DME, oligonucleotide substrates, NaBH₄ trapping, and toxicity in E. coli are in the Supplemental Experimental Procedures.
(§2) 5′-labeled oligonucleotide substrates (13.3 nM) were incubated with DME protein (250 nM) in a 15 μl reaction with 40 mM HEPES-KOH (pH 8.0), 0.1 M KCl, 0.1 mM EDTA, 0.5 mM dithiothreitol, and 200 μg/mL BSA at 37°. After 1 hr of incubation, 1 M NaBH₄ was added to a final concentration of 100 mM and the reaction tubes were placed at 37° for an additional 10 min. An equal volume of 2×SDS-PAGE loading buffer (90 mM Tris-HCl, pH 6.8, 20% glycerol, 2% SDS, 0.02% bromophenol blue, 100 mM dithiothreitol) was added to terminate the trapping reaction. […]

The next series concerns the target T3, DME K1286Q (MBP-Δ537DME) (UniProt Q8LK56 SEQ:538-1729, K1286Q).
T3 sequence: T1 sequence with K749Q
The description is as above. The following applies: tags: N-terminal MBP; label: 5'-32P top strand. As to the method: as §1, §2

Series [2] deals with T4, DME (MBP-Δ537DME, wild-type glycosylase domain) (UniProt Q8LK56 SEQ:538-1729).
T4 chain: T1 sequence
Kind of series: NaBH4-trapped covalent complex (~200 kd); 40 mM HEPES-KOH pH 8.0, 0.1 M KCl, 37 C. The following applies: tags: N-terminal MBP (pMAL-c2x), expressed in E. coli Rosetta; label: 5'-32P top strand. The source says: DME breaks the phosophodiester linkage on the 3′-side of a 5-methylcytosine residue (hemimethylated substrate) and generates end-labeled DNAs that migrate on denaturing polyacrylamide gels at the predicted position for β-elimination products (FIG. 3C). The subsequent cleavage of the phosphodiester linkage on the 5′-side yields δ-elimination products through the same mechanism found in related DNA glycosylases (Bhagwat, M. and Gerlt, J. A., Biochemistry, 35, 659-665 (1996)). Treatment of products with strong base (NaOH) prior to gel electrophoresis confirmed the δ-elimination process at the predicted position (FIG. 3C). […] No lyase activity (FIG. 3E) or covalent trapping (FIG. 3D) was detected when DME was incubated with non-methylated oligonucleotides, or when hemimethylated substrate was incubated with no enzyme or mutant enzymes (D1304N or K1286Q). Plants have 5-methylcytosine in the three sequence contexts; CpG, CpNpG, and CpNpN (Bender, J., Ann Rev Plant Biology, 55, 41-68 (2004)). DME has activity on 5-methylcytosine in each of these sequence contexts (FIG. 3E). We detected no DME activity when single-stranded oligonucleotides with 5-methylcytosine were used in the reaction (data not shown). […]

Series [3] deals with T4, DME (MBP-Δ537DME, wild-type glycosylase …). In words: NaBH4-trapped covalent complex. The following applies: tags: N-terminal MBP (pMAL-c2x), expressed in E. coli Rosetta; label: 5'-32P top strand; T/G mismatch. As to the method: 5′-labeled oligonucleotide substrates (13.3 nM) were incubated with DME protein (250 nM) in a 15 μl reaction with 40 mM HEPES-KOH (pH 8.0), 0.1 M KCl, 0.1 mM EDTA, 0.5 mM dithiothreitol, and 200 μg/mL BSA at 37°. After 1 hr of incubation, 1 M NaBH₄ was added to a final concentration of 100 mM and the reaction tubes were placed at 37° for an additional 10 min. An equal volume of 2×SDS-PAGE loading buffer (90 mM Tris-HCl, pH 6.8, 20% glycerol, 2% SDS, 0.02% bromophenol blue, 100 mM dithiothreitol) was added to terminate the trapping reaction. Products were boiled for 10 min before loading onto a 10% SDS-PAGE gel. The wet gel was exposed to Kodak Biomax MS film for 12-18 h at −80°.

Positions count from the first letter of the chain named.

“CTATACCTCCTCAACTCABAICGGTCACCGTCTCCGGCG / CGCCGGAGACGGTGACNGGAGTTGAGGAGGTATAG [abasic 18 opposite meC (MEA-1.6F18AP / MEA-1.6R17meC)]”: the relative cleavage rate (fold rate vs hemimethylated) in series [1] is 0.1.

B1: hemimethylated meCpG (MEA-1.6F18meC / MEA-1.6R) (dsDNA)
DNA 1: CTATACCTCCTCAACTCCGGTCACCGTCTCCGGCG
DNA 2: CGCCGGAGACGGTGACCGGAGTTGAGGAGGTATAG
modifications: 5mC at position 18 of top strand [top 18 (5mC)]
Consider B1, for which the figures for the binding result (in the series with DME D1304N (MBP-Δ537DME); in the series with DME K1286Q (MBP-Δ537DME); in series [2]) were “no binding”, “no binding” and “binds”, respectively.

B2: T/G mismatch (MEA-1.6F18T / MEA-1.6R) (dsDNA)
DNA 1: B1 DNA 1 with C18T
DNA 2: B1 DNA 2
Regarding B2, the binding result in series [3] is “binds”.
